Test results published in patent US11452764B2, “Inhibiting FAK-AKT interaction to inhibit metastasis” (Board of Trustees of Michigan State University, priority 2017, dated 2022).
Values belong to the molecule of their own block, whether it stands above or below them.

Legend:
[1] = tested on: Caco-2 cells; test: Pressure-induced adhesion of Caco-2 cells transiently expressing GFP-FAK-NT1; assay type: cell-based, human; settings: Caco-2, transient expression, vs GFP control
Protocol: Caco-2 cells were plated on p100 dishes at 30-35% confluence one day prior to transfection. The constructed or empty plasmids were transfected into Caco-2 cells at final concentrations of 2 μg/ml plasmid and 5 μg/ml Lipofectamine 2000. Five hours after transfection, the medium was replaced with 15 ml pre-warmed Caco-2 media without antibiotics. Forty eight hours after DNA transfection, the cells were trypsinized for adhesion or pull-down experiments.
Experimental pressure conditions were controlled using an airtight box with inlet and outlet valves, thumb screws, a pressure gauge and an O-ring for an airtight (11, 25). The box was prewarmed to 37° C. for 1 hour to […] minimize temperature fluctuations experienced by the cells. […]
100,000 Caco-2 or CT-26 cells were seeded to collagen I coated 6-well plates under ambient or increased pressure conditions for 30 minutes. […] The adherent cells were counted microscopically in at least 20 random high power fields per well under a fluorescent microscope.
To test whether this interaction of NT1 with Akt1 might have biological effects, we evaluated the effect of overexpressing NT1 in Caco-2 cells on the adhesive response to increased extracellular pressure, which requires FAK-Akt1 interaction. […]

[2] = tested on: CT-26 cells; test: Pressure-induced adhesion of CT-26 cells inducibly expressing GFP-FAK-NT1; assay type: cell-based, murine
Protocol: A stable CT-26 cell line was generated per ARIAD-ARGENT protocols and GFP-FAK-NT1 expression was induced using 50 nM of the provided non-immunosuppressive rapalog, AP21967 with an equal volume of ethanol used as the control vehicle. Forty eight hours after induction, the cells were trypsinized for adhesion experiments.
Experimental pressure conditions were controlled using an airtight box with inlet and outlet valves, thumb screws, a pressure gauge and an O-ring for an airtight (11, 25). The box was prewarmed to 37° C. for 1 hour to […] minimize temperature fluctuations experienced by the cells. The gas used for pressurization was a filtered 5% CO2/95% air mixture consistent with the atmosphere in which the cells were routinely cultured. The temperature was maintained within ±2° C. and the pressure within ±1.5 mmHg.
100,000 Caco-2 or CT-26 cells were seeded to collagen I coated 6-well plates under ambient or increased pressure conditions for 30 minutes. Non-adherent cells were washed away, and the remainder fixed with 0.01 M NaIO4, 0.75 M lysine, 0.0375 M sodium phosphate buffer, pH 7.4, and 2% paraformaldehyde on ice for 1 hour. The adherent cells were counted microscopically in at least 20 random high power fields per well under a fluorescent microscope. […]

[3] = target: T1, Akt1 (Homo sapiens, UniProt P31749); test: GST-FAK truncation/mutant fusion protein pull-down of Akt1 (cell lysate or purified Akt1); assay type: binding; set-up: endogenous in cells; host or cells: Caco-2 or SW620 cell lysate; settings: for Akt1 pulled down by GST-FAK truncations: GST pull-down, N=4, p<0.05
T1 sequence (P31749 whole entry, the tested form may be a part): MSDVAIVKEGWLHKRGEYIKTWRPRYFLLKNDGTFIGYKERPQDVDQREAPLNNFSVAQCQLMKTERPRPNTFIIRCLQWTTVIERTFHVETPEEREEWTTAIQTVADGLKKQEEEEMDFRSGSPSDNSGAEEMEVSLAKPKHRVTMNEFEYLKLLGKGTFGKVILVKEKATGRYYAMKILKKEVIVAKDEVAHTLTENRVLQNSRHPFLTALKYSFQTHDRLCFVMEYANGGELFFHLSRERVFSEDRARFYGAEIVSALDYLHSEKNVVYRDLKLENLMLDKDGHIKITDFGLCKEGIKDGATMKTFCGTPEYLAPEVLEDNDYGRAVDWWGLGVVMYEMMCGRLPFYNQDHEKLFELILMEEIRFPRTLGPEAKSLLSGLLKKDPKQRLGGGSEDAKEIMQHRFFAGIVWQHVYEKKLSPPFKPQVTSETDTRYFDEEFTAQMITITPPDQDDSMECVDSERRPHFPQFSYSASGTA
Protocol: (§1) Glutathione-Sepharose 4B beads (15 μl) were washed twice in ice-cold PBS and resuspended in 400 μl PBS. Bacterial lysate containing GST-Akt1, GST-FAK-NT1 (truncations), or GST proteins (gift of Dr. J. Chen) were then added in excess and incubated with the beads for 1 h. Glutathione-Sepharose 4B beads coupled to GST-Akt1, GST-FAK (truncations), or GST were then washed twice with PBS by centrifuge for 5 min at 500 g and incubated with nontransfected or transfected Caco-2 cell lysates (600-800 μg protein) overnight at 4° C. Transfected Caco-2 cells received plasmids encoding HA-WT-FAK or HA-FRNK. Nontransfected and transfected Caco-2 cell lysates were prepared in cell lysis buffer lysis buffer [50 mM Tris (pH 7.4), 150 mM NaCl, 1% Triton X-100, 1% sodium deoxycholate, 0.1% SDS, 1 mM EDTA, 1 mM phenylmethylsulfonyl fluoride, 1 mM Na3VO4, 50 mM NaF, 10 mM sodium pyrophosphate, […] (pH 7.4)]. Following incubation, beads were washed twice with lysis buffer without SDS and protease inhibitors. Proteins were eluted with Laemmli SDS sample dilution buffer, separated by 10% SDS-PAGE, and immunoblotted with GST, Akt1 (Cell Signaling Technology, Danvers, Mass.), or HA monoclonal antibodies (Covance, Chantilly, Va.).
In some cases Glutathione-Sepharose-4B beads (30 μl) (GE Healthcare Life Science, Pittsburgh, Pa.) were conjugated with GST (expressed protein from a 250 μl bacterial pellet per 30 μl of beads) or recombinant GST-tagged (expressed protein from a 3 ml bacterial pellet per 30 μl of beads) (24) and incubated with lysate from 2×10^7 Caco-2 or SW620 cells (1500 μg protein) or purified Akt1 (0.35 μg) (Origene, Rockville, Md.) overnight at 4° C. […]
Protein concentrations were determined by bicinchoninic acid (BCA) protein assay (Pierce, Rockford, Ill.). […] Membranes were visualized by the infrared fluorescent IRDye system (LI-COR Biosciences, Lincoln, Nebr.) and analyzed on an Odyssey scanner (LI-COR Biosciences, Lincoln, Nebr.) within the linear range. […]

[4] = target: T1, Akt1; test: GST-Akt1 pull-down of HA-tagged wild type FAK or FRNK from transfected Caco-2 cell lysate; assay type: binding; set-up: made in house; host or cells: bacteria (pGEX-4T1; E. coli BL21 is printed only for the GST-FAK fusions); settings: lysate of transiently transfected Caco-2 cells; 1 of 2 similar experiments
Protocol: as §1, with “Va.). […]” for “Va.).”

B1: GFP-FAK-NT1: GFP fusion of FAK-NT1 (residues 1-126) expressed transiently or inducibly in cells (protein)
chain: MAAAYLDPNLNHTPNSSTKTHLGTGMERSPGAMERVLKVFHYFESNSEPTTWASIIRHGDATDVRGIIQKIVDSHKVKNVACYGFRLSHLRSEEVHWLHVDMGVSSVREKYELAHPPEEWKYELRI
modifications: left off: large carriers
notes: GFP fusion of FAK-NT1 (residues 1-126) expressed transiently or inducibly in cells
- Pressure-induced adhesion ([1]; 15 mmHg increased pressure 30 minutes): inhibited
- Basal levels of adhesion ([1]; ambient pressure): reduced
- Stimulation of cell adhesion by increased pressure ([2]; CT26, expression induced 48 hours before, 15 mmHg 30 minutes, vs GFP control): prevented the stimulation of cell adhesion by increased pressure
- Basal levels of adhesion ([2]; CT26, inducible expression): reduced

- Akt1 pulled down by GST-FAK truncations [3]: significantly more Akt1
- Akt1 pulled down by GST-FAK-NT1-conjugated Sepharose beads ([3]; overnight incubation with either cell lysate or purified Akt1): pulled down Akt1
B2: NT1: recombinant GST-FAK truncated peptide, FAK residues 1-126 (SEQ ID NO:3) (protein)
chain: B1 chain
modifications: left off: large carriers

- HA-tagged protein in eluate after passage over GST-Akt1 beads (Western blot for HA) [4]: enriched
B3: HA-conjugated wild type FAK: HA-tagged wild type FAK expressed in Caco-2 cells (protein)
chain: MAAAYLDPNLNHTPNSSTKTHLGTGMERSPGAMERVLKVFHYFESNSEPTTWASIIRHGDATDVRGIIQKIVDSHKVKHVACYGFRLSHLRSEEVHWLHVDMGVSSVREKYELAHPPEEWKYELRIRYLPKGFLNQFTEDKPTLNFFYQQVKSDYMLEIADQVDQEIALKLGCLEIRRSYWEMRGNALEKKSNYEVLEKDVGLKRFFPKSLLDSVKAKTLRKLIQQTFRQFANLNREESILKFFEILSPVYRFDKECFKCALGSSWIISVELAIGPEEGISYLTDKGCNPTHLADFTQVQTIQYSNSEDKDRKGMLQLKIAGAPEPLTVTAPSLTIAENMADLIDGYCRLVNGTSQSFIIRPQKEGERALPSIPKLANSEKQGMRTHAVSVSETDDYAEIIDEEDTYTMPSTRDYEIQRERIELGRCIGEGQFGDVHQGIYMSPENPALAVAIKTCKNCTSDSVREKFLQEALTMRQFDHPHIVKLIGVITENPVWIIMELCTLGELRSFLQVRKYSLDLASLILYAYQLSTALAYLESKRFVHRDIAARNVLVSSNDCVKLGDFGLSRYMEDSTYYKASKGKLPIKWMAPESINFRRFTSASDVWMFGVCMWEILMHGVKPFQGVKNNDVIGRIENGERLPMPPNCPPTLYSLMTKCWAYDPSRRPRFTELKAQLSTILEEEKAQQEERMRMESRRQATVSWDSGGSDEAPPKPSRPGYPSPRSSEGFYPSPQHMVQTNHYQVSGYPGSHGITAMAGSIYPGQASLLDQTDSWNHRPQEIAMWQPNVEDSTVLDLRGIGQVLPTHLMEERLIRQQQEMEEDQRWLEKEERFLKPDVRLSRGSIDREDGSLQGPIGNQHIYQPVGKPDPAAPPKKPPRPGAPGHLGSLASLSSPADSYNEGVKLQPQEISPPPTANLDRSNDKVYENVTGLVKAVIEMSSKIQPAPPEEYVPMVKEVGLALRTLLATVDETIPLLPASTHREIEMAQKLLNSDLGELINKMKLAQQYVMTSLQQEYKKQMLTAAHALAVDAKNLLDVIDQARLKMLGQTRPH
modifications: left off: small tags and cut ends
notes: HA-tagged wild type FAK expressed in Caco-2 cells

- Akt1 pulled down by GST-FAK truncations [3]: significantly more Akt1
B4: NT1-2: recombinant GST-FAK truncated peptide, residues 61-126 (protein, listed as Homo sapiens)
chain: ATDVRGIIQKIVDSHKVKNVACYGFRLSHLRSEEVHWLHVDMGVSSVREKYELAHPPEEWKYELRI
modifications: GST tag

- HA-tagged protein in eluate after passage over GST-Akt1 beads (Western blot for HA) [4]: markedly reduced
B5: HA-conjugated FRNK: HA-tagged FAK-related non-kinase, 67 kDa segment from the COOH-terminal region of FAK (protein)
chain: MESRRQATVSWDSGGSDEAPPKPSRPGYPSPRSSEGFYPSPQHMVQTNHYQVSGYPGSHGITAMAGSIYPGQASLLDQTDSWNHRPQEIAMWQPNVEDSTVLDLRGIGQVLPTHLMEERLIRQQQEMEEDQRWLEKEERFLKPDVRLSRGSIDREDGSLQGPIGNQHIYQPVGKPDPAAPPKKPPRPGAPGHLGSLASLSSPADSYNEGVKLQPQEISPPPTANLDRSNDKVYENVTGLVKAVIEMSSKIQPAPPEEYVPMVKEVGLALRTLLATVDETIPLLPASTHREIEMAQKLLNSDLGELINKMKLAQQYVMTSLQQEYKKQMLTAAHALAVDAKNLLDVIDQARLKMLGQTRPH
modifications: left off: small tags and cut ends
notes: HA-tagged FAK-related non-kinase, 67 kDa segment from the COOH-terminal region of FAK
